Reference: doi:10.1101/2025.08.28.672883 (2025)
Several values for one entry are separate records, joined by “and”; a condition that tells them apart may be missing. Equal entries are not always repeated.

Target: SARS-CoV-2 spike receptor-binding domain, prototype (RBD-WT) (SARS-CoV-2, UniProt P0DTC2 333-528)
Assay: BLI

B1: VYD222 Fab (Fab, V domains shown)
VH: EVQLVESGGGLVKPGGSLRLSCAASGFTFGSYEMNWVRQAPGKGLEWVSSISEDGYSTYYPDSLKGRFTISRDSAKNSLYLQMNSLRADDTAVYYCARDFGGDTAWAGTGFTYWGQGTLVTVSS
VL: QSVLTQPPSVSGAPGQRITISCTGSSSNIGAGYDVHWYQQLPGTAPKLLIYGSSSRNYGVPDRFSGSKSGTSASLAITGLQAEDEADYYCQSYDSDLGVLYTFGTGTKVTVL
  Kd: 5.4 nM and 5 nM

B2: ADI-77310 Fab (Fab, V domains shown)
VH: EVQLVESGGGLVKPGGSLRLSCAASGFTFGSYYMNWVRQAPGKGLEWVSSISEDGYSTYYPDSLKGRFTISRDSAKNSLYLQMNSLRADDTAVYYCARDFGGHTAWAGTGFTYWGQGTLVTVSS
VL: QSVLTQPPSVSGAPGQRITISCTGSSSNIGAGYDVHWYQQLPGTAPKLLIYGSSSRNSGVPDRFSGSKSGTSASLAITGLQAEDEADYYCQSYDSDLSVLYTFGTGTKVTVL
  Kd: 1 nM and 0.8 nM
